The target in experiment [1] is T1, Factor Xa (Homo sapiens, UniProt P00742).
T1 chain: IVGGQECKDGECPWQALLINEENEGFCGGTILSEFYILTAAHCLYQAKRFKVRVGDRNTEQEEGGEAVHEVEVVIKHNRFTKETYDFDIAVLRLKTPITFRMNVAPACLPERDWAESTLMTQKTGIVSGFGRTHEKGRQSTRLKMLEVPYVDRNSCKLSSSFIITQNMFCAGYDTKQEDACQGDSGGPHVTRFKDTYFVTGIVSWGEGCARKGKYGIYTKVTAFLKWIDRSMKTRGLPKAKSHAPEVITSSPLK
As to the kind of experiment: SPR steady-state.

Experiment [2] has as its target T1, Factor Xa. As to the kind of experiment: SPR kinetics.
For experiment [3], the target named is T1, Factor Xa. As to the kind of experiment: chromogenic substrate S2222 inhibition, apparent Ki.
In experiment [4] the target is T1, Factor Xa. The experiment in a line: ITC. (ITC needs no label: the signal is the heat of the interaction.)
For experiment [5], the target named is T1, Factor Xa. The experiment in a line: chromogenic substrate S2222 inhibition, alphaKi.

B1: Lufaxin 1-278 (protein)
chain: DGDEYFIGKYKEKDETLFFASYGLKRDPCQIVLGYKCSNNQTHFVLNFKTNKKSCISAIKLTSYPKINQNSDLTKNLYCQTGGIGTDNCKLVFKKRKRQIAANIEIYGIPAKKCSFKDRYIGADPLHVDSYGLPYQFDQEHGWNVERYNIFKDTRFSTEVFYHKNGLFNTQITYLAEEDSFSEAREITAKDIKKKFSIILPNEEYKRISFLDVYWFQETMRKKPKYPYIHYNGECSNENKTCELVFDTDELMTYALVKVFTNPESDGSRLKEEDLGRG
Regarding B1, the values for the Kd in the experiment with Factor Xa [1], with Factor Xa [2] and with Factor Xa [4] were 9.69 nM, 3.86 nM and 2.1 nM, respectively. For the same molecule, in the experiment with Factor Xa [3], the Ki was found to be 0.95 nM.

B2: Lufaxin 1-278 (protein)
chain: B1 chain
modifications: S2222 substrate-bound FXa
B2: in the experiment with Factor Xa [5], the Ki came out at 2.21 nM.

For the origin of these results see article PMC3421056 (2012).
